T1: human carcinoembryonic antigen (human, UniProt P06731 35-685, 125I label (125I-CEA, the tracer in the radioimmunoassay))
T1 construct: Used as a 125I-labelled tracer; also called CEA
T1 sequence (looked up): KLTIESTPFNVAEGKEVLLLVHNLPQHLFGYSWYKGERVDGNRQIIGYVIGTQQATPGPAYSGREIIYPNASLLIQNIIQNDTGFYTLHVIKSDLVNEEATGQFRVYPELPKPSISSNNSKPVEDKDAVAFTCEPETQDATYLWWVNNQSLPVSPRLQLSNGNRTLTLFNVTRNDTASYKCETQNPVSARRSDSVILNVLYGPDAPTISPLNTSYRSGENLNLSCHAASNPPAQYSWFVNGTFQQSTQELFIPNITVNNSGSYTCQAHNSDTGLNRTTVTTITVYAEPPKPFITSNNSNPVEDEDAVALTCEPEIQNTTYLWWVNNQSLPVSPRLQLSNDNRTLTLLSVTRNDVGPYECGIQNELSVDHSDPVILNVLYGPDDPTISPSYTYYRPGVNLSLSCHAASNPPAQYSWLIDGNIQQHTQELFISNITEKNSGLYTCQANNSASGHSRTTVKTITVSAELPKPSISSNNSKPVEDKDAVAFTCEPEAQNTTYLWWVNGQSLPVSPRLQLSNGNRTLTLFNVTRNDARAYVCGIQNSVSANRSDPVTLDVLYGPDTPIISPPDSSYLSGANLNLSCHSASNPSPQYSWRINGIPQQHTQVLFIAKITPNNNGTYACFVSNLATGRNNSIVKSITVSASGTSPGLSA


Columns and labels:
[1] = molecular target: T1, human carcinoembryonic antigen; assay: solid phase radioimmunoassay: culture supernatant, 125I-CEA, Sepharose-bound goat anti-human IgG
[2] = molecular target: T1, human carcinoembryonic antigen; assay: affinity comparison by radioimmunoassay and Scatchard analysis; Ka not given

binding result [1] | binding result [2] | Binder
binds |  | chimeric antibody XCEM 449 (antibody, V domains shown, the one-letter code is converted from the printed three-letter code; also called CEM-chimeric antibody; chimeric CEM antibody) VH: DVQLVESGGGLVQPGGSRKLSCAASGFTFSNFGMHWIRQAPEKGLEWVAYISGGSSTIYYADTVKGRFTISRDNPRNTLFLQMTSLRSEDTAMFYCARDYYANNYWYFDVWGAGTTVTVSS VL: DIVMTQSQKFMSTSVGDRVSITCKASQNVRTAVAWYQQKPGQSPKALIYLASNRYTGVPDRFTGSGSGTDFTLTITNVQSEDLADYFCLQHWNYPLTFGAGTKLELKR
 | binds | murine monoclonal antibody of hybridoma CEM 231.6.7 (antibody, V domains shown, also called murine antibody counterparts; ATCC HB9620) VH: DVQLVESGGGLVQPGGSRKLSCAASGFTFSNFGMHWIRQAPEKGLEWVAYISGGSSTIYYADTVKGRFTISRDNPRNTLFLQMTSLRSEDTAMFYCARDYYANNYWYFDVWGAGTTVTVSS VL: DIVMTQSQKFMSTSVGDRVSITCKASQNVRTAVAWYQQKPGQSPKALIYLASNRYTGVPDRFTGSGSGTDFTLTITNVQSEDLADYFCLQHWNYPLTFGAGTKLELKR

Reference: patent publication EP0332424A2 (dated 1991)
